The test addresses spike protein of wild-type SARS-CoV strain HKU 39849 (SARS-CoV strain HKU 39849). Description: cell-based or functional assay.

From US20080014204A1 come the findings set out here.

CR03-022 (antibody): the Log (TCID50/ml) with mAb (60 µg/ml CR03-022, FRhK-4 cells) (log TCID50/ml) is 4 and the NI (neutralization index) was 3.3 logs.
